{"source": "paper PMC6223037", "about": "“Dye-decolorizing peroxidases in Irpex lacteus combining the catalytic properties of heme peroxidases and laccase play important roles in ligninolytic system” (Biotechnology for Biofuels, 2018)", "proteins": {"B1": {"name": "IlDyP2 (Irpex lacteus) (protein)", "chain": "YHVKRARSSPLIGSFPGQPPLPTIAEVQSSSAGNDSLPFENIQGDILVGMKKDKEKFVFFHINNATTFKSFLKTYAPANITSVQTIIGPASGQPQAFVNLAFSHTGFGALGVADDLQDTAFTAGQFADAPSFGDDTSTWEEAFKGTNVDGVFLIGSDDVTTTNQYRDDLKAKLGDAWTVLLDLDSAARPGAEKGHEHFGYLDGISNPTIPGFGTPFPGQAVVDSGVIFAGRTNDPVTNRPSWALDGSFLVFRKLKQLVPEFHKWTLDNALQNQAGNLTVEEGALLLGSRMFGRWNSGAPIDLTPDVDDPTLGNDPQRNNDFNYIHPGEDLTTDETRCPFTAHVRKTNPRDLEAQGLIPDLFHAIRAGTPYGPEVTDAESNSNTTSIDRGLAFVEYQSVISNGFRFQQLNWANNANFPFNKSEPLGLDPVIGQGTRQTFGLDPRNASDSLTIPQIIISNGGEYFFSPSITALVEHFGA"}, "B2": {"name": "IlDyP1 (Irpex lacteus) (protein)", "chain": "YHVKRARTTSLLGSFPGQGALPTVAQVQSTSSGNDSLPLENIQGDILVGMKKQKEQFVFFHINNATTFKKVLKTYAPANITSIQTLLSAPSAQPLAFVNLAFSQSGATALGVTDDLGDSFFSAGQFADASALGDDTSNWDSTFTGTDVHGVFLIGSDETSFVEQYQSDLEAKLGDAWTVSLTIASAARPGDEAGHEHFGYLDGISNPTITGFGTALPGQSVVDPGIILAGRTGDTVSRPSWALDGSFLVFRKLKQLVPEFNKWTLANAIQNASGNLTAQEGADLLGSRMFGRWKSGAPIDLSPDVDDASLGTDPQRNNNFNYTHAGSDITSDESRCPFSAHIRKTNPRDLESVIGHANHAIRAGTPYGPELTDDESSSGTTSTDRGLAFVEYQSNIGNGFRTQQEVWANAAAFPFGKTESIGLDPVIGQGDRTTYGLNAQNVTESYSVPSFVISNGGEYFFSPSITALVETFAA"}}, "key": {"purified protein": {"substrate": "COc1ccccc1O", "assay": "purified protein", "settings": "50 mM sodium tartrate"}, "[1]": {"substrate": "COc1cccc(OC)c1O", "assay": "peroxidase oxidation, spectrophotometric; nonlinear fit", "assay_type": "biochemical, Irpex lacteus", "settings": "pH 3, 25 °C, 50 mM sodium tartrate, co-substrate H2O2", "description": "(§1) peroxidase oxidation, spectrophotometric; nonlinear fit on IlDyP2"}, "[2]": {"substrate": "CCn1c(=NN=c2sc3cc(S(=O)(=O)O)ccc3n2CC)sc2cc(S(=O)(=O)O)ccc21", "assay": "peroxidase oxidation, spectrophotometric; nonlinear fit", "assay_type": "biochemical, Irpex lacteus", "settings": "pH 3, 25 °C, 50 mM sodium tartrate, co-substrate H2O2", "description": "as §1"}, "[3]": {"substrate": "COc1cccc(OC)c1O", "assay": "peroxidase oxidation, spectrophotometric; nonlinear fit", "assay_type": "biochemical, Irpex lacteus", "settings": "pH 4, 25 °C, 50 mM sodium tartrate, co-substrate H2O2", "description": "(§2) peroxidase oxidation, spectrophotometric; nonlinear fit on IlDyP1"}, "[4]": {"substrate": "CCn1c(=NN=c2sc3cc(S(=O)(=O)O)ccc3n2CC)sc2cc(S(=O)(=O)O)ccc21", "assay": "peroxidase oxidation, spectrophotometric; nonlinear fit", "assay_type": "biochemical, Irpex lacteus", "settings": "pH 4, 25 °C, 50 mM sodium tartrate, co-substrate H2O2", "description": "as §2"}, "[5]": {"settings": "pH 3, 25 °C, co-substrate H2O2, pH 3.0"}, "[6]": {"settings": "pH 4, 25 °C, co-substrate H2O2, pH 4.0"}}, "data": [{"protein": "B1", "values": [{"measurement": "Km", "setting": "purified protein; [5]", "result": "229.1 ± 15.9", "unit": "µM"}, {"measurement": "kcat", "setting": "purified protein; [5]", "result": 49.7, "unit": "s⁻¹"}, {"measurement": "kcat/Km", "setting": "purified protein; [5]", "result": 220000, "unit": "M⁻¹ s⁻¹"}, {"measurement": "Km", "setting": "[1]", "result": "1631.7 ± 10.9", "unit": "µM"}, {"measurement": "kcat", "setting": "[1]", "result": "561 ± 19.3", "unit": "s⁻¹"}, {"measurement": "kcat/Km", "setting": "[1]", "result": "340000 ± 20000", "unit": "M⁻¹ s⁻¹"}, {"measurement": "Km", "setting": "[2]", "result": "125.0 ± 1.4", "unit": "µM"}, {"measurement": "kcat", "setting": "[2]", "result": 396, "unit": "s⁻¹"}, {"measurement": "kcat/Km", "setting": "[2]", "result": "3.2e+06", "unit": "M⁻¹ s⁻¹"}]}, {"protein": "B2", "values": [{"measurement": "Km", "setting": "[3]", "result": "892.7 ± 81.5", "unit": "µM"}, {"measurement": "kcat", "setting": "[3]", "result": "199 ± 12.6", "unit": "s⁻¹"}, {"measurement": "kcat/Km", "setting": "[3]", "result": "220000 ± 10000", "unit": "M⁻¹ s⁻¹"}, {"measurement": "Km", "setting": "[4]", "result": "693.1 ± 8.5", "unit": "µM"}, {"measurement": "kcat", "setting": "[4]", "result": "356 ± 11.2", "unit": "s⁻¹"}, {"measurement": "kcat/Km", "setting": "[4]", "result": "510000 ± 10000", "unit": "M⁻¹ s⁻¹"}, {"measurement": "Km", "setting": "purified protein; [6]", "result": "592.1 ± 53.0", "unit": "µM"}, {"measurement": "kcat", "setting": "purified protein; [6]", "result": 49.2, "unit": "s⁻¹"}, {"measurement": "kcat/Km", "setting": "purified protein; [6]", "result": 83000, "unit": "M⁻¹ s⁻¹"}]}]}
